Reference: article PMC6625990, “Structural underpinnings of Ric8A function as a G-protein α-subunit chaperone and guanine-nucleotide exchange factor” (Nature Communications, 2019)

B1: bovine Ric8A1–492 [bovine] / Gαt333–350 [modified: biotin on the N-terminus (in the BLI assays); biotin on the N-terminus (in the BLI assays)] [not stated] (parent)
chain 1: MEPRAVADALETGEEDVVMEALRAYNRENSQSFTFDDAQQEDRKRLAKLLVSVLEQGLPPSRRVIWLQSIRILSRDRSCLDSFTSRRSLQALACYAGISASQGSVPEPLNMDVVLESLKCLCNLVLSSPVAQALAAEAGLVVRLAERVGLCRQSSFPHDVQFFDLRLLFLLTALRTDVRQQLFQELQGVRLLTRALELTLGMTEGERHPELLPPQETERAMEILKVLFNITFDSIKREVDEEDAALYRHLGTLLRHCVMLAAAGDRTEELHGHAVNLLGNLPVKCLDVLLTLEPHEGSLEFLGVNMDVIRVLLSFMEKRLHQTHRLKESVAPVLSVLTECARMHRPARKFLKAQVLPPLRDVRTRPEVGELLRNKLVRLMTHLDTDVKRVAAEFLFVLCSESVPRFIKYTGYGNAAGLLAARGLMAGGRPEGQYSEDEDTDTDEYKEAKASINPVTGRVEEKPPNPMEGMTEEQKEHEAMKLVNMFDKLSRH
chain 2: DAVTDIIIKENLKDCGLF

Legend:
[1] = variants of: B1; experiment: BLI (steady-state); details: with Gαt333–350 [modified: biotin on the N-terminus (in the BLI assays)
[2] = variants of: B1; experiment: BLI (steady-state binding curve); details: with Gαt333–350 [modified: biotin on the N-terminus (in the BLI assays), biotinylated Gαt333–350 coupled to a streptavidin biosensor

| Kd [1] | Kd [2] | Variant |
| --- | --- | --- |
| > 10000 nM | > 10000 nM | chain 1 A173W |
| 1800 nM | 1900 nM | chain 1 F169R |
